{
  "source": "paper PMC7611088",
  "target": "human β3 homopentameric GABAAR construct (K279T, M3-M4 loop replaced by SQPARAA) (human) (UniProt P28472)",
  "assay": "cryo-EM structure",
  "data": [
    {"substance": "human β3 homopentameric GABAAR construct (K279T, M3-M4 loop replaced by SQPARAA) (from UniProt P28472 26-473) (receptor)", "values": [
      {"measurement": "stoichiometry N", "result": 5}
    ]}
  ]
}
